# Measured values published in EP2319931A1 (Inhibitex, Inc., dated 2011).
# T1: human fibrinogen (human, UniProt P02671 20-629; P02675 31-491; P02679 27-437)
# T1 construct: Purified human fibrinogen, bought (Chromogenix for ELISA, Calbiochem for clumping); The plate adherence assays say only 'fibrinogen'; also called solid phase fibrinogen; immobilized fibrinogen
# T1 sequence 1: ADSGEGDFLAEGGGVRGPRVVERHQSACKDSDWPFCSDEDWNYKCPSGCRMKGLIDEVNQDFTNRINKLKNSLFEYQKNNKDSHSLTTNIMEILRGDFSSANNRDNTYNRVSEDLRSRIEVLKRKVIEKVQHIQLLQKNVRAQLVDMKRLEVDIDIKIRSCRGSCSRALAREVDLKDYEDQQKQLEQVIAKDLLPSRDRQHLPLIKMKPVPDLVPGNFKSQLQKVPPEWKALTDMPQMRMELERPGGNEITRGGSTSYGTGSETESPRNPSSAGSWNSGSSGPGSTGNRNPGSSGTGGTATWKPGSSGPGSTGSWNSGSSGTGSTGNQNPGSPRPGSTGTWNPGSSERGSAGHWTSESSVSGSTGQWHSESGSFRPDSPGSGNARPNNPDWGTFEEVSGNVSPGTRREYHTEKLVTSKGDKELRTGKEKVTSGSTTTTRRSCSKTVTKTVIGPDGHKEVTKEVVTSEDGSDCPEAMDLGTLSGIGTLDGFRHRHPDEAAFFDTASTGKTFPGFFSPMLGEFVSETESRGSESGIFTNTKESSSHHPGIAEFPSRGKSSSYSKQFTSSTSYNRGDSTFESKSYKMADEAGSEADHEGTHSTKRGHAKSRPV
# T1 sequence 2: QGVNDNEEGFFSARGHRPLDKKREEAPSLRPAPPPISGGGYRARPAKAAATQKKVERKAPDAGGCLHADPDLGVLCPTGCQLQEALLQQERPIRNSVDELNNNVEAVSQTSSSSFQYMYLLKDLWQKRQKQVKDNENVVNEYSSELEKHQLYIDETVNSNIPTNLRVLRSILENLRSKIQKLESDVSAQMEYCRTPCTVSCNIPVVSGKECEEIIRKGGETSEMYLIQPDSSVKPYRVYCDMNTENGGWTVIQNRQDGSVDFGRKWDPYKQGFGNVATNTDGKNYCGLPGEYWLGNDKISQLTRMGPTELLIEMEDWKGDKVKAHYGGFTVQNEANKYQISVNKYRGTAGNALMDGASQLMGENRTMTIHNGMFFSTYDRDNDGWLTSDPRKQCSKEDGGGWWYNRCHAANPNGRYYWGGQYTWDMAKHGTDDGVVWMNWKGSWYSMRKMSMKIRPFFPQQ
# T1 sequence 3: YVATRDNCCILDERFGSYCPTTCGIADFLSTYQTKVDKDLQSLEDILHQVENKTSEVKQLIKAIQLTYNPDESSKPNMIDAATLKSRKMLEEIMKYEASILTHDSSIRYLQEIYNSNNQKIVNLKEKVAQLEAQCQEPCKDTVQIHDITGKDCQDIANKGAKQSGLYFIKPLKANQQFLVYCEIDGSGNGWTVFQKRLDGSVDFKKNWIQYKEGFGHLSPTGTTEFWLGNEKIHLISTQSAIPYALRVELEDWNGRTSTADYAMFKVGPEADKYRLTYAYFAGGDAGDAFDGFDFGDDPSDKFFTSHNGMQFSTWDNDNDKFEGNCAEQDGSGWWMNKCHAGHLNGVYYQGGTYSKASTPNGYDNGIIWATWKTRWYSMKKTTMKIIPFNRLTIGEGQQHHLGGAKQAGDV
# T2: alpha chain of human fibrinogen (human, UniProt P02671 20-629)
# T2 construct: Band of human fibrinogen (Chromogenix) after SDS-PAGE, on nitrocellulose; also called α chain of fibrinogen
# T2 sequence: T1 sequence 1
# B1: biotinylated ClfB (His-tag recombinant region A) (other)
# chain: SEQSNDTTQSSKNNASADSEKNNMIETPQLNTTANDTSDISANTNSANVDSTTKPMSTQTSNTTTTEPASTNETPQPTAIKNQATAAKMQDQTVPQEGNSQVDNKTTNDANSIATNSELKNSQTLDLPQSSPQTISNAQGTSKPSVRTRAVRSLAVAEPVVNAADAKGTNVNDKVTASNFKLEKTTFDPNQSGNTFMAANFTVTDKVKSGDYFTAKLPDSLTGNGDVDYSNSNNTMPIADIKSTNGDVVAKATYDILTKTYTFVFTDYVNNKENINGQFSLPLFTDRAKAPKSGTYDANINIADEMFNNKITYNYSSPIAGIDKPNGANISSQIIGVDTASGQNTYKQTVFVNPKQRVLGNTWVYIKGYQDKIEESSGKVSATDTKLRIFEVNDTSKLSDSYYADPNDSNLKEVTDQFKNRIYYEHPNVASIKFGDITKTYVVLVEGHYDNTGKNLKTQVIQENVDPVTNRDYSIFGWNNENVVRYGGGSADGDSAVN
# modifications: Biotinylated with EZ link-sulfo-NHS-LC-Biotin (sites not given); N-terminal His-tag from pV4 left off.
# notes: Region A (S45 to N542) amplified from S. aureus Newman genomic DNA, cloned in His-tag vector pV4, purified on nickel; also called ClfB region A; biotinylated purified ClfB region A
# B2: biotinylated ClfA region A protein (other)
# chain: SENSVTQSDSASNESKSNDSSSVSAAPKTDDTNVSDTKTSSNTNNGETSVAQNPAQQETTQSSSTNATTEETPVTGEATTTTTNQANTPATTQSSNTNAEELVNQTSNETTFNDTNTVSSVNSPQNSTNAENVSTTQDTSTEATPSNNESAPQSTDASNKDVVNQAVNTSAPRMRAFSLAAVAADAPAAGTDITNQLTNVTVGIDSGTTVYPHQAGYVKLNYGFSVPNSAVKGDTFKITVPKELNLNGVTSTAKVPPIMAGDQVLANGVIDSDGNVIYTFTDYVNTKDDVKATLTMPAYIDPENVKKTGNVTLATGIGSTTANKTVLVDYEKYGKFYNLSIKGTIDQIDKTNNTYRQTIYVNPSGDNVIAPVLTGNLKPNTDSNALIDQQNTSIKVYKVDNAADLSESYFVNPENFEDVTNSVNITFPNPNQYKVEFNTPDDQITTPYIVVVNGHIDPNSKGDLALRSTLYGYNSNIIWRSMSWDNEVAFNNGSGSGDGIDKPVVPEQPDEPGEIEPIPE
# modifications: biotinylated (sites not given)
# notes: domain: region A; also called biotinylated recombinant region A from ClfA; C1fA region A
# B3: beta chain of human fibrinogen (other)
# chain: T1 sequence 2
# notes: Band of human fibrinogen (Chromogenix) after SDS-PAGE, on nitrocellulose; also called β chain of fibrinogen
# B4: gamma chain of human fibrinogen (other)
# chain: T1 sequence 3
# notes: Band of human fibrinogen (Chromogenix) after SDS-PAGE, on nitrocellulose; also called γ chain of fibrinogen
# Experiments:
# [1] = molecular target: T3, bovine serum albumin (bovine, UniProt P02769 25-607); assay: direct ELISA, biotinylated region A on BSA-coated plates
# T3 construct: Negative control coat in ELISA; also called BSA
# T3 sequence (P02769 25-607 limits assumed): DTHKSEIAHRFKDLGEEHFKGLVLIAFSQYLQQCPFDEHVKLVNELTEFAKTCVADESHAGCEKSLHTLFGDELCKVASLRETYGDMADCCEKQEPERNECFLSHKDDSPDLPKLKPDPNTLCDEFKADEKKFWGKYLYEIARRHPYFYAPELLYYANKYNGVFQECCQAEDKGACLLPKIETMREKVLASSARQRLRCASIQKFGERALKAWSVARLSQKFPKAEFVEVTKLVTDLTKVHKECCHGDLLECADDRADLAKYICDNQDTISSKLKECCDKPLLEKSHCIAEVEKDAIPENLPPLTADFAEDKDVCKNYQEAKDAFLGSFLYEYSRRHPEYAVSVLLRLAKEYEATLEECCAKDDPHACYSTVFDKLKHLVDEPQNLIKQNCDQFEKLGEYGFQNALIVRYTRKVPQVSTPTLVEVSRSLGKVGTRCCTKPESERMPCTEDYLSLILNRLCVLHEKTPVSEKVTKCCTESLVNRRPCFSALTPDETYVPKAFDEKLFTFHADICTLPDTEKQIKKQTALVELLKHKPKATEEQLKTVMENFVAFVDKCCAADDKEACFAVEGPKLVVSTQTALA
# [2] = molecular target: T1, human fibrinogen; assay: direct ELISA, biotinylated region A on fibrinogen-coated plates (Figure 14)
# [3] = molecular target: T2, alpha chain of human fibrinogen; assay: Western affinity blot, blotted human fibrinogen probed with 2.5 µg/ml biotinylated ClfB region A
# [4] = molecular target: B1; assay: as above
# [5] = molecular target: B2; assay: Western affinity blot (Figure 22), blotted human fibrinogen probed with 2.5 µg/ml biotinylated region A
binder,measurement,setting,value
B1,binding result,[1],no binding (tested: 0.1-10 µg/ml)
same,binding result,[2],binds
same,binding result,[3],binds
B2,binding result,[1],no binding
same,binding at the highest concentration relative to ClfB region A,[2],~50 % greater than ClfB
B3,binding result,[4],binds
B4,binding result,[5],binds
